In US20210087281A1 (AGOMAB THERAPEUTICS, published 2021):
Values belong to the binder of their own block, whether it stands above or below them.

Columns and labels:
human MET ECD [1] = molecular target: T1, human MET ECD (human, UniProt P08581 25-932); assay: SPR, MET ECD on chip, crude periplasmic Fab
T1 construct: range 1-932; recombinant ECD made by the applicants; the stated range begins at residue 1, so it includes the signal peptide of the entry; also called hMET; hMET ECD
Protocol: (§1) Fab-expressing phages from the libraries described above were produced according to standard phage display protocols. For selection, phages were first adsorbed to immobilized recombinant human MET ECD, washed, and then eluted using trypsin. After two cycles of selection with human MET ECD, two other cycles were performed in the same fashion using mouse MET ECD. In parallel, we also selected phages alternating a human MET ECD cycle with a mouse MET ECD cycle, for a total of four cycles. Phages selected by the two approaches were pooled together and then used to infect TG1 E. coli. Individual colonies were isolated and secretion of Fabs was induced using IPTG (Fermentas). The Fab-containing periplasmic fraction of bacteria was collected and tested for its ability to bind human and mouse MET ECD by Surface Plasmon Resonance (SPR). Human or mouse MET ECD was immobilized on a CM-5 chip using amine coupling in sodium acetate buffer (GE Healthcare). The Fab-containing periplasmic extracts were loaded into a BIACORE 3000 apparatus (GE Healthcare) with a flow rate of 30 μl/min. The Fab off-rates (koff) were measured over a two minute period. Binding of Fabs to human and mouse MET was further characterized by ELISA using MET ECD in solid phase and periplasmic crude extract in solution.
(§2) TABLE 7 Fabs binding to both human MET (hMET) and mouse MET (mMET). Fabs are grouped in families based on their VH CDR3 sequence. Binding of Fabs to human and mouse MET ECD was determined by Surface Plasmon Resonance (SPR) and by ELISA. SPR values represent the koff (s⁻¹). ELISA values represent the Optical Density (OD) at 450 nm (AU, arbitrary units). Both SPR and ELISA were performed using crude periplasmic extracts. Fab concentration in the extract was not determined. Values are the mean of three independent measurements.

mouse MET ECD [2] = molecular target: T2, mouse MET ECD (mouse, UniProt P16056 25-931); assay: SPR, MET ECD on chip, crude periplasmic Fab
T2 construct: range 1-931; recombinant ECD made by the applicants; the stated range begins at residue 1; also called mMET; mMET ECD
Protocol: as §1, §2

human MET ECD [3] = molecular target: T1, human MET ECD; assay: ELISA, MET ECD in solid phase, crude periplasmic Fab
Protocol: as §1, §2

mouse MET ECD [4] = molecular target: T2, mouse MET ECD; assay: as above
Protocol: as §1, §2

[5] = molecular target: T3, mouse MET-Fc (R&D Systems) (mouse, UniProt P16056 25-929, limits assumed); assay: competition ELISA, mMET-Fc in solid phase, competitor 0.3 nM biotinylated mHGF
T3 construct: bought chimeric protein; also called mMET; not shown: Fc part
Protocol: (§3) To investigate along this line, we tested the competition between mAbs and HGF by ELISA. Recombinant human and mouse HGF (R&D Systems) were biotinylated at the N-terminus using NHS-LC-biotin (Thermo Scientific). MET-Fc protein, either human or mouse (R&D Systems), was immobilized in solid phase and then exposed to 0.3 nM biotinylated HGF, either human or mouse, in the presence of increasing concentrations of antibodies (0-120 nM).
(§4) A MET-Fc chimeric protein (either human or mouse) was immobilized in solid phase and exposed to a fixed concentration of biotinylated HGF (either human or mouse), in the presence of increasing concentrations of antibodies. […] Antibody-HGF competition is expressed as IC₅₀ (the concentration that achieves 50% competition) and IMAX (the maximum % competition reached at saturation).

[6] = molecular target: T4, native human MET on living cells (human, UniProt P08581 25-1390); assay: cell-based or functional assay
[7] = molecular target: T5, native mouse MET on living cells (mouse, UniProt P16056 25-1379); assay: cell-based or functional assay
[8] = molecular target: T4, native human MET on living cells; assay: flow cytometry, A549 cells
Protocol: (§5) We also analysed whether chimeric anti-MET antibodies bound to native human and mouse MET in living cells. […] Antibody binding to cells was analysed by flow cytometry using phycoerythrin-conjugated anti-human IgG1 antibodies (eBioscience) and a CyAn ADP analyser (Beckman Coulter). As a positive control for human MET binding, we used a commercial mouse anti-human MET antibody (R&D Systems) and phycoerythrin-conjugated anti-mouse IgG1 antibodies (eBioscience).
(§6) As a positive control for mouse MET binding we used a commercial goat anti-mouse MET antibody (R&D Systems) and phycoerythrin-conjugated anti-goat IgG1 antibodies (eBioscience). […] Consistent with the data obtained in ELISA, maximal binding (EMAX) varied depending on antibody, but was similar in human and mouse cells.

[9] = molecular target: T6, human MET-Fc (R&D Systems) (human, UniProt P08581 25-932); assay: competition ELISA, hMET-Fc in solid phase, competitor 0.3 nM biotinylated hHGF
T6 construct: extracellular domain; bought chimeric protein; also called hMET; not shown: Fc portion of human IgG1
Protocol: as §3, §4

[10] = molecular target: T4, native human MET on living cells; assay: cell-based or functional assay; remark: listed apart in the source
[11] = molecular target: T5, native mouse MET on living cells; assay: cell-based or functional assay; remark: listed apart in the source
human MET ECD [12] = molecular target: T1, human MET ECD; assay: ELISA, MET ECD in solid phase, mAb 0-20 nM
Protocol: (§7) Production (by transient transfection of mammalian cells) and purification (by protein A affinity chromatography) of the resulting chimeric llama-human IgG1 molecules was outsourced to U-protein Express. Binding of chimeric mAbs to MET was determined by ELISA using hMET or mMET ECD in solid phase and increasing concentrations of antibodies (0-20 nM) in solution. […] Binding capacity (EMAX) varied from antibody to antibody, possibly due to partial epitope exposure in the immobilized antigen, but was similar in the human and mouse setting.

mouse MET ECD [13] = molecular target: T2, mouse MET ECD; assay: ELISA, MET ECD in solid phase, mAb 0-20 nM
Protocol: as §7

[14] = molecular target: T4, native human MET on living cells; assay: cell-based or functional assay; remark: listed apart in the source
[15] = molecular target: T5, native mouse MET on living cells; assay: cell-based or functional assay; remark: listed apart in the source
[16] = molecular target: T5, native mouse MET on living cells; assay: flow cytometry, MLP29 cells
Protocol: as §5, §6

[17] = molecular target: T4, native human MET on living cells; assay: cell-based or functional assay; remark: listed apart in the source
[18] = molecular target: T5, native mouse MET on living cells; assay: cell-based or functional assay; remark: listed apart in the source

T1 sequence (P08581 25-932 limits assumed, form in doubt): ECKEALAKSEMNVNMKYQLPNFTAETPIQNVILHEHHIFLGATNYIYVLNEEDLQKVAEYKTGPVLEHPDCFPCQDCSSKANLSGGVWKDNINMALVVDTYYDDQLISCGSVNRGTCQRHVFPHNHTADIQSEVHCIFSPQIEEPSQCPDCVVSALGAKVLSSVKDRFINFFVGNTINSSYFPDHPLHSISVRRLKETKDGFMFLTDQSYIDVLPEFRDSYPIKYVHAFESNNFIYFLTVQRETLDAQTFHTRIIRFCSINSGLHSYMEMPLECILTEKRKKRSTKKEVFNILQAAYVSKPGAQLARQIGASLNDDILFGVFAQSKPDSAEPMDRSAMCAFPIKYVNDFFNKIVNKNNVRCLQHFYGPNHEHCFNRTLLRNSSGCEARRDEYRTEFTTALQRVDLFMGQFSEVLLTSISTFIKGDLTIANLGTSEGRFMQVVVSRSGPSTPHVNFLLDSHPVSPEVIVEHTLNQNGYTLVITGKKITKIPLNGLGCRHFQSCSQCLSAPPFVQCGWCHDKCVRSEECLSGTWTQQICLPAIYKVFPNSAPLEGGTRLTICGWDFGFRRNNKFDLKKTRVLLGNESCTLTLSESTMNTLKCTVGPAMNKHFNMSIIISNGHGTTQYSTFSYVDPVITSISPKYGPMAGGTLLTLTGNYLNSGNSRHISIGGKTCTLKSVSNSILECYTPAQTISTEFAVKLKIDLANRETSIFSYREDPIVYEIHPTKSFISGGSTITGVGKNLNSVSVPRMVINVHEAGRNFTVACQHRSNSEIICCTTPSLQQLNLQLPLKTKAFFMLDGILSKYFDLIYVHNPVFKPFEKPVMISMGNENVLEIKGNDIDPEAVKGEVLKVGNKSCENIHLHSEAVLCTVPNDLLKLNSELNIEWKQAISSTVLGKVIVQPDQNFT
T4 sequence (P08581 25-1390): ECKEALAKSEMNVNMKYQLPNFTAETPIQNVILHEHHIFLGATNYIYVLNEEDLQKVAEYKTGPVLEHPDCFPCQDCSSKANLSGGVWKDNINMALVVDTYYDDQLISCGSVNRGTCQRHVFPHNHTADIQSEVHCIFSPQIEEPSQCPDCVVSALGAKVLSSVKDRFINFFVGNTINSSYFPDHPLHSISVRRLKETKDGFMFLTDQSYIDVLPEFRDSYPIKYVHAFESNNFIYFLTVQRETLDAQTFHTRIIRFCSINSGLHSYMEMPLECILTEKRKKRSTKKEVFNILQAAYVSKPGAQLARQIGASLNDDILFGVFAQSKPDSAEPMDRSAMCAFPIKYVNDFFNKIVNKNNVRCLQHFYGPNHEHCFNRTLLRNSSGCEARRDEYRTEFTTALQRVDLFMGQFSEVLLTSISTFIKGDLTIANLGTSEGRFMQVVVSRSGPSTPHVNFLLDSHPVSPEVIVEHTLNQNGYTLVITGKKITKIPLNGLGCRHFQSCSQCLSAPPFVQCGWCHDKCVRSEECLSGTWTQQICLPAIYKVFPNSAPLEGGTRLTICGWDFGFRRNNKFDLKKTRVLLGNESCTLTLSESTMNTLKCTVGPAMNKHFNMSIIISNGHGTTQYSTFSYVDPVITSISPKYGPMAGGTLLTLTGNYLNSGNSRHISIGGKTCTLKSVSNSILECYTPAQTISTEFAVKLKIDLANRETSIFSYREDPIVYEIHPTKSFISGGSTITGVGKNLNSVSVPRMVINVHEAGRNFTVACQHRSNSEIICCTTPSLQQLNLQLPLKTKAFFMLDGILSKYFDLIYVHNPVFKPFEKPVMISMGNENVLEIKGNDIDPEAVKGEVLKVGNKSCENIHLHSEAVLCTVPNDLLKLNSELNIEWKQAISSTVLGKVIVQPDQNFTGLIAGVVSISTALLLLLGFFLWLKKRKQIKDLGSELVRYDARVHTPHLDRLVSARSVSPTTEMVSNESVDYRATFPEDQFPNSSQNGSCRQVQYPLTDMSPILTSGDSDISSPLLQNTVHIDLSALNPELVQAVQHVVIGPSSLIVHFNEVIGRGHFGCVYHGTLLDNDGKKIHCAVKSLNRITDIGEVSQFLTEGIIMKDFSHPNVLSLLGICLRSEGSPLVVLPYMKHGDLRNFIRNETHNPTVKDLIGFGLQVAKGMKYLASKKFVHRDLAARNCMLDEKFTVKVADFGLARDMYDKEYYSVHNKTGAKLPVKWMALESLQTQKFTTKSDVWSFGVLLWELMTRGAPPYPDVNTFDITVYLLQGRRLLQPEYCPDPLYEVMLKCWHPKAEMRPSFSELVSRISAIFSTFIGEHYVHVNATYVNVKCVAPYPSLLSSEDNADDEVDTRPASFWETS
T6 sequence (P08581 25-932): as the sequence (P08581 25-932 limits assumed, form in doubt) above

koff (human MET ECD [1]): 0.00568 s⁻¹
koff (mouse MET ECD [2]): 0.00544 s⁻¹
OD450 (human MET ECD [3]): 3.7 AU
OD450 (mouse MET ECD [4]): 3.7 AU
B1: 76H10 Fab (Fab, V domains shown)
VH: QLQLVESGGGLVQPGGSLRVSCTASGFTFNTYYMTWVRQAPGKGLEWVSDINSGGGTYYADSVKGRFTISRDNAKNTLYLQMNSLKPEDTALYYCVRVRIWPVGYDYWGQGTQVTVSS
VL: QAVVTQEPSLSVSPGGTVTLTCGLSSGSVTTSNYPGWFQQTPGQAPRTLIYNTNNRHSGVPSRFSGSISGNKAALTITGAQPEDEADYYCSLYTGSYTTVFGGGTHLTVL
notes: llama Fab (VH-CH1 and lambda VL-CL) with MYC flag, crude periplasmic extract

IC50 [5]: 0.52 nM
IMAX [5]: 72.8%
phospho-MET ELISA EC50, A549 cells [6]: 1.51 nM
phospho-MET ELISA EMAX (% HGF activity), A549 cells [6]: 69.7%
phospho-MET ELISA EC50, MLP29 cells [7]: 0.79 nM
phospho-MET ELISA EMAX (% HGF activity), MLP29 cells [7]: 66.8%
EC50 [8]: 0.371 nM
EMAX [8]: 156 % relative to control
IC50 [9]: 0.45 nM
IMAX [9]: 77.3%
EC50 (human MET ECD [12]): 0.064 nM
EMAX (OD450) (human MET ECD [12]): 2.78 AU
EC50 (mouse MET ECD [13]): 0.048 nM
EMAX (OD450) (mouse MET ECD [13]): 2.9 AU
scatter score 0-4, HPAF-II, 0.001 nM [14]: 0 score
scatter score 0-4, HPAF-II, 0.004 nM [14]: 0 score
scatter score 0-4, HPAF-II, 0.012 nM [14]: 0 score
scatter score 0-4, HPAF-II, 0.037 nM [14]: 0 score
scatter score 0-4, HPAF-II, 0.111 nM [14]: 0 score
scatter score 0-4, HPAF-II, 0.333 nM [14]: 0 score
scatter score 0-4, HPAF-II, 1.000 nM [14]: 1 score
scatter score 0-4, HPAF-II, 3.000 nM [14]: 2 score
scatter score 0-4, HPAF-II, 9.000 nM [14]: 3 score
scatter score 0-4, MLP29, 0.001 nM [15]: 0 score
scatter score 0-4, MLP29, 0.004 nM [15]: 0 score
scatter score 0-4, MLP29, 0.012 nM [15]: 0 score
scatter score 0-4, MLP29, 0.037 nM [15]: 0 score
scatter score 0-4, MLP29, 0.111 nM [15]: 0 score
scatter score 0-4, MLP29, 0.333 nM [15]: 0 score
scatter score 0-4, MLP29, 1.000 nM [15]: 1 score
scatter score 0-4, MLP29, 3.000 nM [15]: 2 score
scatter score 0-4, MLP29, 9.000 nM [15]: 3 score
EC50 [16]: 0.359 nM
EMAX [16]: 172 % relative to control
branches per spheroid, LOC cells, 0.5 nM [17]: 9 branches
branches per spheroid, LOC cells, 2.5 nM [17]: 12.3 branches
branches per spheroid, LOC cells, 12.5 nM [17]: 16 branches
branches per spheroid, MLP29 cells, 0.5 nM [18]: 12.7 branches
branches per spheroid, MLP29 cells, 2.5 nM [18]: 11.7 branches
branches per spheroid, MLP29 cells, 12.5 nM [18]: 18.7 branches
B2: 72F8 chimeric llama-human IgG1 mAb (antibody, V domains shown)
VH: ELQLVESGGGLVQPGGSLRLSCAASGFTFSNYVMSWVRQAPGKGLEWVSDTNSGGSTSYADSVKGRFTISRDNAKNTLYLQMNSLKPEDTALYYCARSFFYGMNYWGKGTQVTVSS
VL: QSALTQPPSLSASPGSSVRLTCTLSSGNNIGSYDISWYQQKAGSPPRYLLNYYTDSRKHQDSGVPSRFSGSKDASANAGLLLISGLQPEDEADYYCSAYKSGSYRWVFGGGTHVTVL
notes: llama VH on human IgG1 CH1-CH2-CH3, llama VL on human lambda CL
protection from staurosporine, viability EC50, MCF10A cells [10]: > 32 nM
protection from staurosporine, viability EMAX, MCF10A cells [10]: 35.8%
protection from staurosporine, viability EC50, MLP29 cells [11]: > 32 nM
protection from staurosporine, viability EMAX, MLP29 cells [11]: 43.8%
